Measurements taken from US9255132B2, “Angiopoietin derived peptides” (Compugen Ltd., priority 2008, dated 2016).
Entries after “also recorded” stand apart in the source; their conditions may differ. Residues, ends and D or L forms follow the SMILES beside them.

How the values were obtained:
Settings in all cases: CM5 chip, 10-50 μM peptide
recombinant human Ang1 = target: T1, recombinant human Ang1 (Homo sapiens, UniProt Q15389); assay: BIACORE (SPR) binding of peptides to immobilized recombinant Ang1
T1 construct: purchased R&D Systems 923-AN-025/CF
T1 sequence (Q15389 16-498): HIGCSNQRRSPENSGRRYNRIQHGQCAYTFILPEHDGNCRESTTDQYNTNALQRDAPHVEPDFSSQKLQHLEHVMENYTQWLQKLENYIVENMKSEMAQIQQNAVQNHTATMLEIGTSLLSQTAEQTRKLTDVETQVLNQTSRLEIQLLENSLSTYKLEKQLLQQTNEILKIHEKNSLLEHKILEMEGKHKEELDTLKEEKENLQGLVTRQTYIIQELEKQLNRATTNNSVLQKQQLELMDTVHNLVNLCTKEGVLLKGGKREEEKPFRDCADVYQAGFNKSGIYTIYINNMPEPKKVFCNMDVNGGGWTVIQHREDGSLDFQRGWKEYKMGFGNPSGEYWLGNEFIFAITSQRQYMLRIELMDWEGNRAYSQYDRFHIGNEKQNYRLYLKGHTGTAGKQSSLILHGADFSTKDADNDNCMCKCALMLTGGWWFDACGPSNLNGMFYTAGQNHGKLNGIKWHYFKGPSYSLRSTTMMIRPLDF
Description: (§1) The capability of CGEN-H2 [SEQ ID NO: 1], CGEN-H3 [SEQ ID NO: 2], CGEN-A8 [SEQ ID NO: 3], CGEN-H7 [SEQ ID NO: 4], CGEN-G4 [SEQ ID NO: 5], CGEN-G6 [SEQ ID NO: 6], CGEN-F9 [SEQ ID NO: 7], CGEN-F12 [SEQ ID NO: 8], CGEN-C6-30 [SEQ ID NO: 9], CGEN-All [SEQ ID NO: 10], and CGEN-G2 [SEQ ID NO: 11] to specifically bind to recombinant Ang1, Ang2, and Ang4 was investigated using the BIACORE technology, measuring protein-protein interaction and binding affinity (Wendler et al 2005, Anal Bioanal Chem, 381: 1056-1064). The technology is based on surface plasmon resonance (SPR), an optical phenomenon that enables detection of unlabeled interactants in real time. The SPR-based biosensors can be used in determination of active concentration, screening and characterization in terms of both affinity and kinetics.
(§2) Peptide-protein binding was analyzed using surface plasmon resonance. Analysis of the to interaction between CGEN-H2 [SEQ ID NO: 1], CGEN-H3 [SEQ ID NO: 2], CGEN-A8 [SEQ ID NO: 3], CGEN-H7 [SEQ ID NO: 4], CGEN-G4 [SEQ ID NO: 5], CGEN-G6 [SEQ ID NO: 6], CGEN-F9 [SEQ ID NO: 7], CGEN-F12 [SEQ ID NO: 8], CGEN-C6 [SEQ ID NO: 9], CGEN-A11 [SEQ ID NO: 10], and CGEN-G2 [SEQ ID NO: 11] peptides and recombinant human Ang1 carrier-free (R&D Systems, Cat#923-AN-025/CF, Lot#FHW1507031), human Ang2 carrier-free (R&D Systems, Cat#623-AN-025/CF, Lot#BNO0457121), and human Ang4 carrier-free (R&D Systems, Cat#964-AN-025/CF, Lot#ELM025121) was conducted using the BIAcore biosensor (Pharmacia Biosensor, Uppsala, Sweden). The recombinant Ang1, Ang2, and Ang4 were immobilized directly to a CM5 sensor chip. Solutions containing 10-50 μM of CGEN-H2 [SEQ ID NO: 1], CGEN-H3 [SEQ ID NO: 2], CGEN-A8 [SEQ ID NO: 3], CGEN-H7 [SEQ ID NO: 4], CGEN-G4 [SEQ ID NO: 5], CGEN-G6 [SEQ ID NO: 6], CGEN-F9 [SEQ ID NO: 7], CGEN-F12 [SEQ ID NO: 8], CGEN-C6 [SEQ ID NO: 9], CGEN-A11 [SEQ ID NO: 10], and CGEN-G2 [SEQ ID NO: 11] peptides were injected into the sample chamber of the BIACORE device at a rate of […] and the interaction was monitored using surface plasmon resonance.
(§3) Solutions containing different concentrations of CGEN-G6 [SEQ ID NO: 6], CGEN-F9 [SEQ ID NO: 7], CGEN-F12 [SEQ ID NO: 8], CGEN-A11 [SEQ ID NO: 10], and CGEN-G2 [SEQ ID NO: 11] peptides (as indicated in Table 2) were injected into the sample chamber of the BIACORE device at a rate of […] and the interaction was monitored using surface plasmon resonance. As a background, the solutions were also injected onto an empty flow cell with no immobilized ligand and the in binding levels achieved were subtracted. Data was analyzed using BIAevaluation software. The affinity constant of the interaction between CGEN-G6 [SEQ ID NO: 6], CGEN-F9 [SEQ ID NO: 7], CGEN-F12 [SEQ ID NO: 8], CGEN-C6 [SEQ ID NO: 9], CGEN-A11 [SEQ ID NO: 10], and CGEN-G2 [SEQ ID NO: 11] and Ang1, Ang2, or Ang4 was determined by direct kinetic analysis. The 1:1 Langmuir binding model was used to fit kinetic data.
(§4) Table 2 summarizes results of analysis of CGEN-G6 [SEQ ID NO: 6], CGEN-F9 [SEQ ID NO: 7], CGEN-F12 [SEQ ID NO: 8], CGEN-A11 [SEQ ID NO: 10], and CGEN-G2 [SEQ ID NO: 11] interaction with Ang1, Ang2, or Ang4. Kinetic measurements were done at the indicated concentration range, and they are presented as KD (M). CGEN-F12 [SEQ ID NO: 8] bound to Ang1 and Ang4 with high affinity. The specificity of this binding is not clear.

human Ang2 = target: T2, human Ang2 (Homo sapiens, UniProt O15123); assay: BIACORE (SPR) binding of peptides to immobilized recombinant Ang2
T2 construct: purchased R&D Systems 623-AN-025/CF
T2 sequence (O15123 19-496): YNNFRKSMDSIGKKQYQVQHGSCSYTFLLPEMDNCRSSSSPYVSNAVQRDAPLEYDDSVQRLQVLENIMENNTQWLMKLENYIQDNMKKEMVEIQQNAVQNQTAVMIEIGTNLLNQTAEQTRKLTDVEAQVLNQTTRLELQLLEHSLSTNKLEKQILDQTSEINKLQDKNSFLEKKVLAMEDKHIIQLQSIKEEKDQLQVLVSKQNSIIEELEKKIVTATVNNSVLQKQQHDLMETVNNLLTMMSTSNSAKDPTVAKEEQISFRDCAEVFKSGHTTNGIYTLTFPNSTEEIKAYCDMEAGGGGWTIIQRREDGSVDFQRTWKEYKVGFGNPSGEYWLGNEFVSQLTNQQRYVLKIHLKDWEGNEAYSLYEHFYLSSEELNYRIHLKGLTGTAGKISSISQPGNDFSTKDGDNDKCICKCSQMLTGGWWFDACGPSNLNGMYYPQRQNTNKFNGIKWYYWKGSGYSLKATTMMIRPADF
Description: as §1, §2, §3, §4

human Ang4 = target: T3, human Ang4 (Homo sapiens, UniProt Q9Y264); assay: BIACORE (SPR) binding of peptides to immobilized recombinant Ang4
T3 construct: purchased R&D Systems 964-AN-025/CF
T3 sequence (Q9Y264 25-503): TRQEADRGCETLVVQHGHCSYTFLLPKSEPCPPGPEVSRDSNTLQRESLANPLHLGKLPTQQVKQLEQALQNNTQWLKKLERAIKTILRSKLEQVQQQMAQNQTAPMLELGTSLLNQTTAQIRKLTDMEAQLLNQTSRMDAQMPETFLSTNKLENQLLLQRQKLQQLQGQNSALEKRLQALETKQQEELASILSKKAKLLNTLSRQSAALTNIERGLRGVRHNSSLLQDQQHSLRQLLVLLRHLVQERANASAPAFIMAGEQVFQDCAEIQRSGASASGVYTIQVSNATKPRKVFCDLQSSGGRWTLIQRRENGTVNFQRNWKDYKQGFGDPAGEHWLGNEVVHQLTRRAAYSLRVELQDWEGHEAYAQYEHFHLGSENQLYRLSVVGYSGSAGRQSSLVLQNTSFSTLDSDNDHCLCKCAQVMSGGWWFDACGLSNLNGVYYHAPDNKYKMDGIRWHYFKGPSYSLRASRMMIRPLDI
Description: as §1, §2, §3, §4

| Compound | binding to immobilized Ang1 (in words) (recombinant human Ang1) | binding to immobilized Ang2 (in words) (human Ang2) | binding to immobilized Ang4 (in words) (human Ang4) |
| --- | --- | --- | --- |
| CC[C@H](C)[C@H](NC(=O)[C@H](CO)NC(=O)[C@H](C)NC(=O)[C@H](CC(C)C)NC(=O)[C@H](CCC(=O)O)NC(=O)[C@H](CCC(=O)O)NC(=O)[C@H](CCC(N)=O)NC(C)=O)C(=O)N[C@@H](CC(C)C)C(=O)N[C@@H](CO)C(=O)N[C@@H](CCCCN)C(=O)N[C@@H](CCCCN)C(=O)N[C@@H](C)C(=O)N[C@@H](CCCCN)C(=O)N[C@@H](CC(C)C)C(=O)N[C@@H](CC(C)C)C(=O)N[C@@H](CC(N)=O)C(=O)N[C@H](C(=O)N[C@@H](CC(C)C)C(=O)N[C@@H](CO)C(=O)N[C@@H](CCCNC(=N)N)C(=O)N[C@@H](CCC(N)=O)C(=O)N[C@@H](CO)C(=O)N[C@@H](C)C(=O)N[C@@H](C)C(=O)N[C@@H](CC(C)C)C(=O)N[C@H](C(=O)N[C@@H](CC(N)=O)C(=O)N[C@H](C(=O)N[C@@H](CCC(=O)O)C(=O)N[C@@H](CCCNC(=N)N)C(=O)NCC(=O)N[C@@H](CC(C)C)C(=O)N[C@@H](CCCNC(=N)N)C(=O)NCC(=O)N[C@H](C(=O)N[C@@H](CCCNC(=N)N)C(N)=O)C(C)C)[C@@H](C)CC)[C@@H](C)O)[C@@H](C)O [CGEN-F9] (Ac-QEELASILSKKAKLLNTLSRQSAALTNIERGLRGVR-NH2) | capable of binding | capable of binding | capable of binding |
| CC(=O)N[C@@H](CCC(N)=O)C(=O)N[C@@H](Cc1c[nH]cn1)C(=O)N[C@@H](CO)C(=O)N[C@@H](CC(C)C)C(=O)N[C@@H](CCCNC(=N)N)C(=O)N[C@@H](CCC(N)=O)C(=O)N[C@@H](CC(C)C)C(=O)N[C@@H](CC(C)C)C(=O)N[C@H](C(=O)N[C@@H](CC(C)C)C(=O)N[C@@H](CC(C)C)C(=O)N[C@@H](CCCNC(=N)N)C(=O)N[C@@H](Cc1c[nH]cn1)C(=O)N[C@@H](CC(C)C)C(=O)N[C@H](C(=O)N[C@@H](CCC(N)=O)C(=O)N[C@@H](CCC(=O)O)C(=O)N[C@@H](CCCNC(=N)N)C(=O)N[C@@H](C)C(=O)N[C@@H](CC(N)=O)C(=O)N[C@@H](C)C(=O)N[C@@H](CO)C(=O)N[C@@H](C)C(N)=O)C(C)C)C(C)C [CGEN-F12] (Ac-QHSLRQLLVLLRHLVQERANASA-NH2) | capable of binding; also recorded: high affinity | capable of binding | capable of binding; also recorded: high affinity |
| LKEEKENLQGLVTRQTYIIQELEKQLNRAT (Ac-LKEEKENLQGLVTRQTYIIQELEKQLNRAT-NH2) [CGEN-H2, amino acid residues 212-241 of angiopoietin 1] | none or low binding | none or low binding | none or low binding |
| LMDTVHNLVNL (Ac-LMDTVHNLVNL-NH2) [CGEN-A8, amino acid residues 254-264 of angiopoietin 1] | none or low binding | none or low binding | none or low binding |
| NEILKIHEKNSLLEHKILEMEGKHK (Ac-NEILKIHEKNSLLEHKILEMEGKHK-NH2) [CGEN-H7, amino acid residues 182-206 of angiopoietin 1] | none or low binding | none or low binding | none or low binding |
| QLQVLVSKQNSIIEEL (Ac-QLQVLVSKQNSIIEEL-NH2) [CGEN-G4, amino acid residues 215-230 of angiopoietin 2] | none or low binding | none or low binding | none or low binding |
| TDMEAQLLNQTSRMDAQM (Ac-TDMEAQLLNQTSRMDAQM-NH2) [CGEN-C6, amino acid residues 150-167 of angiopoietin 4] | did not bind | not sufficiently strong | did not bind |
| TNNSVLQKQQL (Ac-TNNSVLQKQQL-NH2) [CGEN-H3, amino acid residues 242-252 of angiopoietin 1] | none or low binding | none or low binding | none or low binding |
